In US20240116985A1 (published 2024):
Starred links: 1 amine or outer side, 2 acyl side, 3 side chain; linkers in the order of their positions; H or OH if unused. Positions of bridges follow the written chain, without caps; N, C: chain ends. Non-standard residues stand in square brackets, D forms with d. Primed or numbered codes have the meaning given here. PyrS2″ = (S)-3-amino-1-((pent-4-en-1-yloxy)carbonyl)pyrrolidine-3-carboxylic acid (stapling residue), C=CCCCOC(=O)N1CC[C@@](N[*:1])(C(=O)[*:2])C1; B5(18) = 2,2-bis(4-pentenyl)glycine (2-amino-2-(pent-4-en-1-yl)hept-6-enoic acid), stitching residue, C=CCCCC(CCCC=C)(N[*:1])C(=O)[*:2]; B5(4) = 2,2-bis(4-pentenyl)glycine = 2-amino-2-(pent-4-en-1-yl)hept-6-enoic acid (stitching residue), C=CCCCC(CCCC=C)(N[*:1])C(=O)[*:2]; TfeGA = (S)-2-amino-3-((carboxymethyl)(2,2,2-trifluoroethyl)amino)propanoic acid, O=C([C@H](CN(CC(=O)[*:3])CC(F)(F)F)N[*:1])[*:2]; B5(3) = 2,2-bis(4-pentenyl)glycine (stitching residue), C=CCCCC(CCCC=C)(N[*:1])C(=O)[*:2]; Phe(2-Cl) = N[C@@H](Cc1ccccc1Cl)C(=O)O; Bta = N[C@@H](Cc1csc2ccccc12)C(=O)O; αAllylPro = C=CC[C@@]1(C(=O)O)CCCN1; tBuAla = CC(C)(C)C[C@H](N)C(=O)O; S8 = C=CCCCCCC[C@](C)(N)C(=O)O; Thr(ol) = C[C@@H](O)[C@H](N)CO; hSer = N[C@@H](CCO)C(=O)O

What was measured:
Assay in all cases: cell-based or functional assay
[1] = molecular target: T1, beta-catenin in DLD1 TCF/LEF luciferase reporter cells (Homo sapiens (Human), UniProt P35222 1-781)
T1 sequence: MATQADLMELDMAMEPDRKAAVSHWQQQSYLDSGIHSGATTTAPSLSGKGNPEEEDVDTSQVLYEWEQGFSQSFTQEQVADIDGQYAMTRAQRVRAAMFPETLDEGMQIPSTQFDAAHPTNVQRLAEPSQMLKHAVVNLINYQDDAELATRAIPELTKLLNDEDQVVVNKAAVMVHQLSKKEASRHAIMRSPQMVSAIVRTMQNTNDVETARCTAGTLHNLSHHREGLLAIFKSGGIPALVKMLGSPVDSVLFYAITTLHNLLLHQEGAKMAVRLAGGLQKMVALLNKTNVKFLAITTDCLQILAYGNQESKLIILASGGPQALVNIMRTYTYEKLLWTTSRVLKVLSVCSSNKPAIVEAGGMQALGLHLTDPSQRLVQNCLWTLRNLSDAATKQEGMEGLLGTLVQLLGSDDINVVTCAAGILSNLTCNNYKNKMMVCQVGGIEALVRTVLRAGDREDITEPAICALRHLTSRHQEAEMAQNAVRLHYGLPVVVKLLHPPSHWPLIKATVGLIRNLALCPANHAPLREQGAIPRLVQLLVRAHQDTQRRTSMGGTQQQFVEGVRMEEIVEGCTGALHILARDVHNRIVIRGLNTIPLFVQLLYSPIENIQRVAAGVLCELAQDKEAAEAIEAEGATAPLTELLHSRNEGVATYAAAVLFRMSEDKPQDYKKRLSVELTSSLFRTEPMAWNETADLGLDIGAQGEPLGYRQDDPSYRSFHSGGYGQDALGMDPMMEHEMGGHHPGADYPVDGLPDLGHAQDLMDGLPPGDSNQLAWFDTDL

B-cat-Halo = molecular target: T2, B-cat-Halo (UniProt P35222 1-781)
T2 sequence (looked up): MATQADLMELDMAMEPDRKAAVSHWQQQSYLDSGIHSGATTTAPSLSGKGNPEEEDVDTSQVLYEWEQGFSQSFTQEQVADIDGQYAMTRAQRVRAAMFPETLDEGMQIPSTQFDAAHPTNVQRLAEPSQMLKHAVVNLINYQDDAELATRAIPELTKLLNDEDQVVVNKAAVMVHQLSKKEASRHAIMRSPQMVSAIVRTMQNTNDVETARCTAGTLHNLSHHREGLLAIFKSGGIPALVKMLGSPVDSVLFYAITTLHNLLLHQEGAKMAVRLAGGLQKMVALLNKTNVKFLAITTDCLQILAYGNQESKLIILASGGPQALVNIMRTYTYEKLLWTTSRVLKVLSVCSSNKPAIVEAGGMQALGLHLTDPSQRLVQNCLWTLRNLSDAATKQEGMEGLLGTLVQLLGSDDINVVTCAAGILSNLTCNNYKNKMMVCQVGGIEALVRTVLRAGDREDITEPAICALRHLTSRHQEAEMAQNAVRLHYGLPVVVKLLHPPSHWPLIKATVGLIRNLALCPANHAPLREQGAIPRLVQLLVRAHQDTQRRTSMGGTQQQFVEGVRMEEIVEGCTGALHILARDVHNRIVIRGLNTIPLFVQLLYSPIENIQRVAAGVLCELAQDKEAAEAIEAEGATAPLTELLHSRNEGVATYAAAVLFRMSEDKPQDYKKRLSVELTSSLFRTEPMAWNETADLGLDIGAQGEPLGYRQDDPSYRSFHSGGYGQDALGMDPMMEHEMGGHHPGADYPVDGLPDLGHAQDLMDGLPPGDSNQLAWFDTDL

[2] = molecular target: T3, beta-catenin in DLD1 TCF/LEF luciferase reporter cells (UniProt P35222 1-781)
T3 sequence (looked up): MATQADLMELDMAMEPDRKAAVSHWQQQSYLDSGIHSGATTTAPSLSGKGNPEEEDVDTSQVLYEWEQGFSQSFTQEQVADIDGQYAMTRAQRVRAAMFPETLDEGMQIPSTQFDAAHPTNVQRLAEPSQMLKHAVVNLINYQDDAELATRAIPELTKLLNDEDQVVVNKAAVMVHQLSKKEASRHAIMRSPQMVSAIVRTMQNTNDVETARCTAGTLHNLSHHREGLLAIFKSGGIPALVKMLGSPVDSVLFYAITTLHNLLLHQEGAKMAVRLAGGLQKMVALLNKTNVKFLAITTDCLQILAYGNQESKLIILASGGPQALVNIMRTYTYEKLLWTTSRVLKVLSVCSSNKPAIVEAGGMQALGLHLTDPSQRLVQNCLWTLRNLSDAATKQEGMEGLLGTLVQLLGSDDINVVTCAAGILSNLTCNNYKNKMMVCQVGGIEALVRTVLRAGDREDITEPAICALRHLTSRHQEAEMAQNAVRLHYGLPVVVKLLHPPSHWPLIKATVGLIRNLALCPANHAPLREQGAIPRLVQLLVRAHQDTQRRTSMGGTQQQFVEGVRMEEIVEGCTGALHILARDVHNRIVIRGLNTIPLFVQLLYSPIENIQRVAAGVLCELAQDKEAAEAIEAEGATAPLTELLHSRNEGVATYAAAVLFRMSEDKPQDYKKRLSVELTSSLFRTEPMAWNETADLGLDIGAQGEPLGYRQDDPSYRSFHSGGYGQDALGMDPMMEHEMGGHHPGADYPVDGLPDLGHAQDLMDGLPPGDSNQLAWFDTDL

DLD1 4% Abs IC50 [1] [µM] | NanoBRET Abs IC50 (B-cat-Halo) [µM] | DLD1 4% Abs IC50 [2] [µM] | Binder
4.1 | – | – | Ac-[αAllylPro]D[tBuAla][B5(4)]DDAAFT[PyrS2″][Phe(2-Cl)][Bta][Thr(ol)] (staple 1-4, 4-11) [I-1245]
– | 23.9 | 1.9 | Ac-[αAllylPro]D[tBuAla][B5(3)]D[TfeGA]AAF[hSer][S8][Phe(2-Cl)][Bta][hSer]-NH2 (staple 1-4, 4-11) [I-1000]
– | 8.9 | 5.7 | Ac-[αAllylPro]D[tBuAla][B5(18)]DDAAFT[PyrS2″][Phe(2-Cl)][Bta]S-NH2 (staple 1-4, 4-11) [I-1015]
